From US20220324953A1 (JIANGSU HENGRUI MEDICINE, published 2022) come the findings set out here.

Test [1] concerns the target T1, human CTGF protein (R&D, Cat No. 9190-CC) (human, UniProt P29279 27-349).
T1 construct: Bought protein; also called CTGF recombinant protein; CTGF (R&D)
T1 sequence: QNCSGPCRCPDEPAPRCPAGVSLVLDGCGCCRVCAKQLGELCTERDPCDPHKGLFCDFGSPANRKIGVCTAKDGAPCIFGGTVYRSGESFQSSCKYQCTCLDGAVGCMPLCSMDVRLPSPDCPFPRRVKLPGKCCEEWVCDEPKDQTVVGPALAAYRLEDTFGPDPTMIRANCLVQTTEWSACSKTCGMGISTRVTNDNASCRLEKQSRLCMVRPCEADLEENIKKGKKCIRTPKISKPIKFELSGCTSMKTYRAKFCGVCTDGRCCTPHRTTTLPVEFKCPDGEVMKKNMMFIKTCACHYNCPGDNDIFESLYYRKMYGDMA
Nature of the test: ELISA, plate coated with CTGF (R&D 9190-CC). The procedure: The binding activity of anti-human CTGF antibody to human CTGF protein was tested by ELISA assay and Biacore. A 96-well microtiter plate was directly coated with the CTGF recombinant protein. The signal strength upon the addition of the antibody was used to determine the binding activity of the antibody to CTGF. The specific experimental procedures were as follows:
The CTGF protein (R&D, Cat No. 9190-CC) was diluted with PBS, pH 7.4 (Shanghai Yuanpei, Cat No. B320) buffer to a concentration of 0.2 μg/ml, 50 μl/well of which was added into the 96-well microtiter plate (Corning, Cat No. CLS3590-100EA), and incubated in an incubator at 37° C. for 2 hours or at 4° C. overnight (16-18 hours). The liquid was removed, 250 μl/ well blocking solution (5% skim milk (BD skim milk, Cat No.232100) diluted in PBS) was added, and incubated in an incubator at 37° C. for 3 hours or at 4° C. overnight (16-18 hours) for blocking. After the blocking was finished, the blocking solution was removed, the plate was washed for 5 times with PBST buffer (PBS containing 0.1% Tween-20, pH 7.4), 50 μl/well of various concentrations of each of the test antibodies (antibodies purified from hybridoma or humanized antibodies) diluted with sample dilution solution were added, and incubated in an incubator at 37° C. for 1 hours. After the incubation was finished, the plate was washed for 3 times with PBST, 50 μl/well of HRP-labeled goat anti-mouse secondary antibody (Jackson Immuno Research, Cat No. 115-035-003) or goat anti-human secondary antibody (Jackson Immuno Research, Cat No. 109-035-003) diluted with sample dilution solution was added, and incubated at 37° C. for 1 hour. The plate was washed for 3 times with PBST, 50 μl/well of TMB chromogenic substrate (KPL, Cat No. 52-00-03) was added, incubated at room temperature for 5-10min, and 50 μl/well of 1 M H₂SO₄ was added to stop the reaction. The absorbance value was read by a microplate reader (Molecular Devices, VERSA max) at a wavelength of 450 nm, and the data was analyzed with GraphPad Prism 5. The binding of CTGF antibody to human CTGF protein was calculated as EC50 value.

For test [2], the target named is T2, human CTGF (antigen of the Biacore assays) (human, UniProt P29279 27-349).
T2 construct: also called antigen human CTGF; human CTGF protein
T2 sequence (looked up): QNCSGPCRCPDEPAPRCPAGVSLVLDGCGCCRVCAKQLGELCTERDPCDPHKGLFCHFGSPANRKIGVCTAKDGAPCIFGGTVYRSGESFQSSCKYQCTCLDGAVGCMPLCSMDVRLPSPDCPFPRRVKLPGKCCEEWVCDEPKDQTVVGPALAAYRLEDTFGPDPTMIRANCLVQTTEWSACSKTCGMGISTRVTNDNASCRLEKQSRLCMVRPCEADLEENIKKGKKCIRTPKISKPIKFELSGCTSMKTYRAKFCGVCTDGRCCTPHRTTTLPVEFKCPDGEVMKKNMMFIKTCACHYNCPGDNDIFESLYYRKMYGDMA
Nature of the test: Biacore, antibody captured on Protein A, CTGF in flow, 1:1 fit. From the text: A certain amount of each of the test antibodies was affinity-captured with Protein A biosensor chip (Cat. # 29127556, GE), and then a certain concentration of human or mouse CTGF was allowed to flow through the surface of the chip. The reaction signals were detected in real time with Biacore instrument to generate a binding and dissociation curve. After the dissociation was completed in each cycle, the biosensor chip was washed and regenerated with Glycine-HCl regeneration solution pH 1.5 (Cat. # BR-1003-54, GE). The running buffer for the assay was 1×HBS-EP buffer solution (Cat. # BR-1001-88, GE).

B1: Hu164-77wl (antibody, human IgG1, lambda, V domains shown)
VH: EVQLQESGPGLVKPSQTLSLTCTVSGFSISTFGVHWIRQHPGKGLEWIGVIWRRGGTDYNAAFMSRVTISKDTSKNQVSLKLSSVTAADTAVYYCARDGGFDYWGQGTTVTVSS
VL: ETVVTQEPSLTVSPGGTVTLTCRSSIGAVTTSNYANWVQQKPGQAFRGLIGGTSNRAPWTPARFSGSLLGGKAALTLSGVQPEDEAEYYCALWYSTHYVFGGGTKLTVLG
In turn, B1 registered an EC50 in test [1] of 0.055 nM. For the same molecule, in test [2], binding was characterised by a dissociation constant (Kd) of 0.343 nM, the koff amounted to 0.0176 s⁻¹ and the kon is 5.15e+07 M⁻¹ s⁻¹.

B2: Hu147-22wk (antibody, human IgG1, kappa, V domains shown)
VH: EVQLVESGGGLVQPGGSLRLSCAASGFTFNTYAMNWVRQAPGKGLEWVARIRTKSNNYATYYADSVKDRFTISRDDSKNSLYLQMNSLKTEDTAVYYCVETGFAYWDQGTLVTVSS
VL: EIVLTQSPATLSLSPGERATLSCSASSSVSYMHWFQQKPGQSPKLLIYSTSNLASGIPARFSGSGSGTDYTLTISSLEPEDFAVYYCQQRSSYPLTFGQGTKLEIKR
Turning to B2, the response in test [1] was half-maximal at 0.056 nM (EC50). Moreover, in test [2], binding was put at a Kd of 1.01 nM, the koff came to 0.0142 s⁻¹ and the kon is 1.4e+07 M⁻¹ s⁻¹.

B3: Hu147-15wk (antibody, human IgG1, kappa, V domains shown)
VH: EVQLVESGGGLVQPGGSLRLSCAASGFTFSTYAMNWVRQAPGKGLEWVGRIRTKSNNYATYYADSVKDRFTISRDDSKNSLYLQMNSLKTEDTAVYYCVETGFAYWDQGTLVTVSS
VL: DIQLTQSPSSLSASVGDRVTITCSASSSVSYMHWFQQKPGKSPKLWIYSTSNLASGVPSRFSGSGSGTDYTLTISSLQPEDFATYYCQQRSSYPLTFGQGTKLEIKR
B3 showed an EC50 in test [1] of 0.034 nM.

B4: Hu147-33wk (antibody, human IgG1, kappa, V domains shown)
VH: EVQLVESGGGLVQPGGSLRLSCAASGFSFNTYAMNWVRQAPGKGLEWVARIRTKSNNYATYYADSVKDRFTISRDDSESSLYLQMNSLKTEDTAVYYCVETGFAYWDQGTLVTVSS
VL: EIVLTQSPATLSLSPGERATLSCSASSSVSYMHWFQQKPGQSPKLWIYSTSNLASGVPARFSGSGSGTDYTLTISSLEPEDFAVYYCQQRSSYPLTFGQGTKLEIKR
Regarding B4, a half-maximal effect in test [1] (EC50) was put at 0.054 nM. Moreover, in test [2], the equilibrium dissociation constant (Kd) turned out to be 0.713 nM, the off-rate (koff) turned out to be 0.0104 s⁻¹ and the on-rate constant (kon) is 1.45e+07 M⁻¹ s⁻¹.

B5: Hu147-23wk (antibody, human IgG1, kappa, V domains shown)
VH: EVQLVESGGGLVQPGGSLRLSCAASGFTFNTYAMNWVRQAPGKGLEWVARIRTKSNNYATYYADSVKDRFTISRDDSKNSLYLQMNSLKTEDTAVYYCVETGFAYWDQGTLVTVSS
VL: EIVLTQSPATLSLSPGERATLSCSASSSVSYMHWFQQKPGQSPKLWIYSTSNLASGVPARFSGSGSGTDYTLTISSLEPEDFAVYYCQQRSSYPLTFGQGTKLEIKR
B5 yielded an EC50 in test [1] of 0.058 nM. In addition, in test [2], the Kd worked out at 0.818 nM, the koff amounted to 0.0112 s⁻¹ and the kon came to 1.37e+07 M⁻¹ s⁻¹.

B6: Hu147-31wk (antibody, human IgG1, kappa, V domains shown)
VH: EVQLVESGGGLVQPGGSLRLSCAASGFSFNTYAMNWVRQAPGKGLEWVARIRTKSNNYATYYADSVKDRFTISRDDSESSLYLQMNSLKTEDTAVYYCVETGFAYWDQGTLVTVSS
VL: EIVLTQSPATLSLSPGERATLSCSASSSVSYMHWFQQKPGQSPRLLIYSTSNLASGIPARFSGSGSGTDYTLTISSLEPEDFAVYYCQQRSSYPLTFGQGTKLEIKR
B6 displayed an EC50 in test [1] of 0.056 nM. For the same molecule, in test [2], the Kd was 0.894 nM, the koff is 0.0159 s⁻¹ and the kon worked out at 1.78e+07 M⁻¹ s⁻¹.

B7: Hu147-32wk (antibody, human IgG1, kappa, V domains shown)
VH: EVQLVESGGGLVQPGGSLRLSCAASGFSFNTYAMNWVRQAPGKGLEWVARIRTKSNNYATYYADSVKDRFTISRDDSESSLYLQMNSLKTEDTAVYYCVETGFAYWDQGTLVTVSS
VL: EIVLTQSPATLSLSPGERATLSCSASSSVSYMHWFQQKPGQSPKLLIYSTSNLASGIPARFSGSGSGTDYTLTISSLEPEDFAVYYCQQRSSYPLTFGQGTKLEIKR
Molecule B7 registered an EC50 in test [1] of 0.063 nM. In test [2], this molecule showed a Kd of 0.91 nM, a koff of 0.0133 s⁻¹ and a kon of 1.46e+07 M⁻¹ s⁻¹.

B8: Hu147-24wk (antibody, human IgG1, kappa, V domains shown)
VH: EVQLVESGGGLVQPGGSLRLSCAASGFTFNTYAMNWVRQAPGKGLEWVARIRTKSNNYATYYADSVKDRFTISRDDSKNSLYLQMNSLKTEDTAVYYCVETGFAYWDQGTLVTVSS
VL: DIQMTQSPSSLSASVGDRVTITCSASSSVSYMHWFQQKPGKSPKLLIYSTSNLASGVPSRFSGSGSGTDYTLTISSLQPEDFATYYCQQRSSYPLTFGQGTKLEIKR
As for B8, in test [1], the EC50 was 0.048 nM.

B9: Hu147-21wk (antibody, human IgG1, kappa, V domains shown)
VH: EVQLVESGGGLVQPGGSLRLSCAASGFTFNTYAMNWVRQAPGKGLEWVARIRTKSNNYATYYADSVKDRFTISRDDSKNSLYLQMNSLKTEDTAVYYCVETGFAYWDQGTLVTVSS
VL: EIVLTQSPATLSLSPGERATLSCSASSSVSYMHWFQQKPGQSPRLLIYSTSNLASGIPARFSGSGSGTDYTLTISSLEPEDFAVYYCQQRSSYPLTFGQGTKLEIKR
Molecule B9 showed an EC50 in test [1] of 0.067 nM. Besides, in test [2], the Kd turned out to be 0.974 nM, the koff turned out to be 0.0162 s⁻¹ and the kon was found to be 1.66e+07 M⁻¹ s⁻¹.

B10: Hu147-13wk (antibody, human IgG1, kappa, V domains shown)
VH: EVQLVESGGGLVQPGGSLRLSCAASGFTFSTYAMNWVRQAPGKGLEWVGRIRTKSNNYATYYADSVKDRFTISRDDSKNSLYLQMNSLKTEDTAVYYCVETGFAYWDQGTLVTVSS
VL: EIVLTQSPATLSLSPGERATLSCSASSSVSYMHWFQQKPGQSPKLWIYSTSNLASGVPARFSGSGSGTDYTLTISSLEPEDFAVYYCQQRSSYPLTFGQGTKLEIKR
In test [1], B10 had an EC50 of 0.043 nM. In test [2], the Kd amounted to 0.808 nM, the koff was 0.024 s⁻¹ and the kon is 2.97e+07 M⁻¹ s⁻¹.

B11: Hu147-11wk (antibody, human IgG1, kappa, V domains shown)
VH: EVQLVESGGGLVQPGGSLRLSCAASGFTFSTYAMNWVRQAPGKGLEWVGRIRTKSNNYATYYADSVKDRFTISRDDSKNSLYLQMNSLKTEDTAVYYCVETGFAYWDQGTLVTVSS
VL: EIVLTQSPATLSLSPGERATLSCSASSSVSYMHWFQQKPGQSPRLLIYSTSNLASGIPARFSGSGSGTDYTLTISSLEPEDFAVYYCQQRSSYPLTFGQGTKLEIKR
In test [1], B11 had an EC50 of 0.045 nM. In test [2], this molecule showed a dissociation constant (Kd) of 1.13 nM, a koff of 0.0336 s⁻¹ and a kon of 2.98e+07 M⁻¹ s⁻¹.

B12: positive control CTGF antibody mAb1 (antibody, V domains shown)
VH: EGQLVQSGGGLVHPGGSLRLSCAGSGFTFSSYGMHWVRQAPGKGLEWVSGIGTGGGTYSTDSVKGRFTISRDNAKNSLYLQMNSLRAEDMAVYYCARGDYYGSGSFFDCWGQGTLVTVSS
VL: DIQMTQSPSSLSASVGDRVTITCRASQGISSWLAWYQQKPEKAPKSLIYAASSLQSGVPSRFSGSGSGTDFTLTISSLQPEDFATYYCQQYNSYPPTFGQGTKLEIKR
notes: Positive control, from CN1829740B; also called pamrevlumab; FG-3019
In test [1], B12 returned an EC50 of 0.067 nM.
